Laboratory results taken from PMC8882607 (Journal of Molecular Biology, 2022).

Target: NTF2-like domain of human G3BP1 (residues 1-139) (human, UniProt Q13283 1-139)
Assay: ITC

Chain of NTF2-like domain of human G3BP1 (residues 1-139) (Q13283 1-139): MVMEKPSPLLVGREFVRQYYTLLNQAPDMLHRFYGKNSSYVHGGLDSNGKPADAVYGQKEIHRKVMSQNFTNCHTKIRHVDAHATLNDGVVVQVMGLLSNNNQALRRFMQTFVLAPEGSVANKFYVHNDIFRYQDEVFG

B1: SARS-CoV-2 N_(1–25) peptide (residues 1-25 of the N protein) (peptide)
peptide: MSDNGPQNQRNAPRITFGGPSDSTG
- dH: -17.6 kcal/mol
